This passage reports OD450 of wells with MHC complex relative to wells with the negative control β2m results from patent US20200347103A1.

The target of the assay is purified folded MHC-complex (Example 34). Put plainly: sandwich ELISA: W6/32 coated, detection with HRP-conjugated rabbit anti-β2m.

With “W6/32 mouse-anti-HLA-ABC antibody (Dako M0736)”, the OD450 of wells with MHC complex relative to wells with the negative control β2m came out at 6 fold.
